Measured values taken from US20050112748A1 (published 2005).

Target: T1, N-terminal portion of N-WASP (1st to 275th amino acid residues) fused to the Gal4 activation domain (pACT2) (UniProt Q95107 1-275)
T1 construct: range 1-275; Yeast two-hybrid prey; also called CRIB-motif-containing N-terminal portion of N-WASP; N-WASP CRIB motif
Test: yeast two-hybrid, beta-galactosidase colony-lift filter assay
Excerpt: The cDNAs encoding the wild-type, constitutively active, and dominant-negative mutants of Cdc42, Tc10, and RhoT were ligated to the Gal4 DNA-binding domain of the pGBT9 vector (Clontech). A cDNA fragment encoding the N-terminal portion of N-WASP (corresponding to 1st to 275th amino acid residues) (EMBO J. 15: 5326-5335 (1996), Nature 391: 93-96 (1998)) was fused to the Gal4 activation domain of pACT2 vector (Clontech) The yeast strain Y190 was sequentially transformed with the bait and prey plasmids. Double transformants were selected on plates of minimal synthetic dropout medium lacking leucine and tryptophan (SD/-Leu/-Trp). The activation of lacz reporter gene was analyzed by β-galactosidase colony-lift filter assay.
Cdc42 generates filopodia through binding to the CRIB motif (J. Biol. Chem. 270: 29071-29074 (1995)) of its target protein N-WASP, which activates Arp2/3-complex- and profilin-mediated actin polymerization (EMBO J. 15: 5326-5335 (1996), Nature 391: 93-96 (1998), Cell 97: 221-231 (1999)). To determine whether Tc10 and RhoT also bound to N-WASP, the yeast two-hybrid interaction assay was performed.

T1 sequence (Q95107 1-275 limits assumed): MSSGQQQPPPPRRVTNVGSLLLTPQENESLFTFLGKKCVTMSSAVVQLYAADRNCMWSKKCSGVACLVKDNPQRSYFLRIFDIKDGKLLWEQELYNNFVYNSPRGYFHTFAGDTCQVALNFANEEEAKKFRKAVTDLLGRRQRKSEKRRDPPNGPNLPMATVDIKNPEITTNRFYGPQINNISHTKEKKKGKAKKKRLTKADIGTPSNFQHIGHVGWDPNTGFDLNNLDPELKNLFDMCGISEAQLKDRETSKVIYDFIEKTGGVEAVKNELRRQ

- binding result: no binding
B1: Dominant-negative mouse RhoT(T35N) fused to the Gal4 DNA-binding domain (pGBT9) (enzyme, not shown: small tags and cut ends)
chain: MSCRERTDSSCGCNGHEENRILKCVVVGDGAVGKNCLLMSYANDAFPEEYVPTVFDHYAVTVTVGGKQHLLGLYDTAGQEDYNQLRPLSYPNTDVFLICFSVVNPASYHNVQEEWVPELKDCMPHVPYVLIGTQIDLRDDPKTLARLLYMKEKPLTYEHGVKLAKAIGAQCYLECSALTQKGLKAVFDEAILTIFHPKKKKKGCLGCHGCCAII
notes: Yeast two-hybrid bait; also called RhoT(T3SN); RhoT DN
